Reference: the supplement of paper PMC9170038

Tested on: MS2 coat protein
Assay: apparent KD of MS2 coat protein; designed switch direction (-1 OFF switch, 1 ON switch): -1; higher = weaker reporter binding
How it was run: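 Three titration conditions were used: no input, 200 uM small-molecule ligand, and an oligonucleotide input. In each, SNAP-549-labelled MS2 coat protein was raised from 0.7 or 1.5 nM, doubling, to 3 µM over designed RNA switches transcribed on Illumina chips by stalled E. coli RNA polymerase. Curve fits of normalised cluster fluorescence gave values whose per-design median over clusters is the apparent KD.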

[1] = input ligand: microRNA oligo, concentration not stated
[2] = Eterna round: R95, input ligand: FMN 200 uM
[3] = Eterna round: R95, input ligand: microRNA oligo, concentration not stated
[4] = Eterna round: R95, input ligand: none

| Sequence | apparent KD of MS2 coat protein (input ligand: FMN 200 uM) [nM] | apparent KD of MS2 coat protein [1] [nM] | apparent KD of MS2 coat protein (input ligand: none) [nM] | apparent KD of MS2 coat protein [2] [nM] | apparent KD of MS2 coat protein [3] [nM] | apparent KD of MS2 coat protein [4] [nM] |
| --- | --- | --- | --- | --- | --- | --- |
| UUAAUAAUGUAAGGAUAUGCGUGGCGAAGCUAUGCAGAAGGUACAUGAGGAUCACCCAUGUGGUCCGUCUGCGUACAGAUGGAA [JL Eng1 1.08 mod] (Eterna round: R96, puzzle: Exclusion NG 1) | 756 | 319 | 365 |  |  |  |
| UUAAUACAUGAGGAUCACCCAUGUCAGGAUAUCCGUAUUUCUUAUAUAUAUUUCUAUCGGAGAAGGGACACAUU [lam1] (Eterna round: R97, puzzle: Exclusion 1) | 50.9 |  | 45.4 |  |  |  |
| UUAAUGUCAGGAUAUGCUUAAUAUAUUUUAUUAUAAUAUAUACAUGAGGAUCACCCAUGUAGAAGGGACAUUAU [LRO-Excl2-04-Fireball XL5] (Eterna round: R97, puzzle: Exclusion 2) | 26.4 |  | 39.1 |  |  |  |
| UUAAUUAAUAAUUAAGAUCAUUACAUGAGGAUCACCCAUGUCGAGGAUAUCAGCUCGAUUAGAGCUGAGAAGGCGACAAAUUAU [ExNG3/13-B1] (Eterna round: R96, puzzle: Exclusion NG 3) | 1060 | 644 | 579 |  |  |  |
| UUAAUUAGCAGACUAAUACCUCACAUGAGGAUCACCCAUGUGCAGGAUAUCAGCUCGUGUAGAGCUGAGAAGGGCACUGUCUGC [ExNG3/12-A3] (Eterna round: R96, puzzle: Exclusion NG 3) | 17 | 10.2 | 10.8 |  |  |  |
| UUAAUUAGCAGACUAAUACCUCACAUGAGGAUCACCCAUGUGCAGGAUAUCAGCUCGUUUAGAGCUGAGAAGGGCACUGUCUGC [ExNG3/12-A2] (Eterna round: R96, puzzle: Exclusion NG 3) | 17.9 | 8.72 | 11.3 |  |  |  |
| UUAAUUUAAGGGAUAGAUCAUUACAUGAGGAUCACCCAUGUUGAGGAUAUCAGCUCGAUUAGAGCUGAGAAGGCAACAAUAGGG [ExNG3/14-A1] (Eterna round: R96, puzzle: Exclusion NG 3) | 46 | 47.1 | 63.8 |  |  |  |
| UUACAAUGUCGCUUACAAGCUUUUUGCUCGUCUUAUAUUACAUGAGGAUCACCCAUGUAGAUCAUGUGGCGUGACCU [JL ViennaUCT Maridi mod 9] (puzzle: Sensor v3, turn-off variant 2) |  |  |  | 165 | 23.3 | 208 |
| UUACCAUGCCGCCUAAUAGCUUUUUGCUCGUCUUAUAUUACAUGAGGAUCACCCAUGUAGAUCAUGUGGCGUGACCU [JL ViennaUCT Maridi mod 2] (puzzle: Sensor v3, turn-off variant 2) |  |  |  | 126 | 39.6 | 121 |
| UUACGGUAGAUCGUGGCUUUUUGCUCGUCUUGUGCUACAACAUGAGGAUCACCCAUGUAGAGGUGAUCUAUUGUAUU [Grok-var2-20 mod JAL] (puzzle: Sensor v3, turn-off variant 2) |  |  |  | 51.9 | 17.8 | 74.5 |
| UUACUAUGCCGCCUAAUAGCUUUUUGCUCGUCUUAUAUUACAUGAGGAUCACCCAUGUAGAUCAUGUGGCGUGACCU [JL ViennaUCT Maridi mod 3] (puzzle: Sensor v3, turn-off variant 2) |  |  |  | 216 | 42 | 206 |
| UUAGAUAGGUCAGGAUAUCGAUGAUUGAAUAGUAUGAUUUACAUGAGGAUCACCCAUGUUUUGUACGAGAAGGGACGUUAGAUU [JR_ExcNG2_Sub020] (Eterna round: R96, puzzle: Exclusion NG 2) | 26.9 | 22.6 | 28.5 |  |  |  |
| UUAGAUAGGUCAGGAUAUCGAUGAUUGAAUUGUAUGAUUUACAUGAGGAUCACCCAUGUUUUGUACGAGAAGGGACGUUAGAUU [JR_ExcNG2_Sub018] (Eterna round: R96, puzzle: Exclusion NG 2) | 26.7 | 17.6 | 37.2 |  |  |  |
| UUAGCGCGAGGAUAUGCGGUUUGUGCUUUGGGCCCUGGCGUACAUGAGGAUCACCCAUGUAGAAGGCGUGUUGU [Apr-15 SS2-50] (puzzle: Exclusion 2) |  |  |  |  | 20.7 |  |
| UUAGGCGUCAUUGCUCGUCUUUUAUGGAGAUGACUGUUAACAUGAGGAUCACCCAUGUGUGUGGGAGCUUUGCAGUU [JR_SV3TOV2_Sub023] (puzzle: Sensor v3, turn-off variant 2) |  |  |  | 213 | 568 | 270 |
| UUAGUGUUAGGAUAUAAUCAUAUAAGCUGUAAGGUGUAUGAUUAGAAGGGACAUGAGGAUCACCCAUGUCGUGA [Eternabot (L1) Solution 94] (Eterna round: R97, puzzle: Exclusion 4) | 23.1 |  | 20.1 |  |  |  |
| UUAUAAAGUGUGAGGAUAUGCUGGUCCUUGGAUCAGCAGAAGGCACAUGAGGAUCACCCAUGUAAUAUAUUUUU [JL bmx4 3.08] (puzzle: Brourd's mod of Exclusion 4) |  |  |  |  | 68.2 |  |

| Sequence | apparent KD of MS2 coat protein (input ligand: FMN 200 uM) [nM] | apparent KD of MS2 coat protein [1] [nM] | apparent KD of MS2 coat protein (input ligand: none) [nM] | apparent KD of MS2 coat protein [2] [nM] | apparent KD of MS2 coat protein [3] [nM] | apparent KD of MS2 coat protein [4] [nM] |
| --- | --- | --- | --- | --- | --- | --- |
| UUAUAACAUGAGGAUCACCCAUGUUAGGAUAUCAGGUACGAGCGCCGUGCUCAGGCCCUGAGAAGGAGCAUGGC [Eternabot (L1) Solution 36] (Eterna round: R97, puzzle: Exclusion 1) | 14.9 |  | 18.6 |  |  |  |
| UUAUACAAGCAAAGAUCCCACAUGAGGAUCACCCAUGUGCUCGUCUUAUAAGGUACUGUGACGAAAGUCACGGUACC [Eli 87 + Mat D67 6] (Eterna round: R97, puzzle: Sensor, turn-off variant 1) | 42.3 |  | 41.6 |  |  |  |
| UUAUUAAAUGUAGGAUAUGCAUAUUAUUAUUAUGCAGAAGGACAUGAGGAUCACCCAUGUAUAUUAUUAUUAUUUAUUAUUUAU [Title] (Eterna round: R96, puzzle: Exclusion NG 1) |  | 35.5 |  |  |  |  |
| UUAUUACAAGCAAGAUCCCACAUGAGGAUCACCCAUGUGCUCGUCUUAUAAGGUACUGUGACGAAAGUCACGGUACC [Sensor 3, v1 - 100] (Eterna round: R96, puzzle: Sensor v3, turn-off variant 1) | 26.3 | 547 | 24.6 |  |  |  |
| UUAUUACAAGCAAGAUCCCACAUGAGGAUCACCCAUGUGCUCGUCUUAUAAGGUACUGUGACGAAAGUCACGGUACC [Sensor 3, v1 - 100] (puzzle: Sensor v3, turn-off variant 1) |  |  |  | 25.8 | 701 | 24.7 |
| UUAUUAUAUGUAGGAUAUGCAUAUUGUUGUUAUGCAGAAGGACAUGAGGAUCACCCAUGUAUAUUGUUGUUGUAUAUUAUAUAU [Title] (Eterna round: R96, puzzle: Exclusion NG 1) | 33.2 | 22.6 | 23.3 |  |  |  |
| UUAUUAUAUGUAGGAUAUGCGUAUUGUUGUUAUGCAGAAGGACAUGAGGAUCACCCAUGUAUAUUAUUGUUAUAUAUUAUAUAU [Title] (Eterna round: R96, puzzle: Exclusion NG 1) | 43 | 20.2 | 25.3 |  |  |  |
| UUAUUCAGAGGAUAUGCGCAUAGAUAAGACUUUUUUUUUUAACAUGAGGAUCACCCAUGUAGAAGGCUGUAAUU [Ex2 #55] (Eterna round: R97, puzzle: Exclusion 2) | 18.1 |  | 21 |  |  |  |
| UUAUUGUAUGUAGGAUAUGCGUAUUAUUAUUGGGCAGAAGGACAUGAGGAUCACCCAUGUAUGUUGUUGUUAUAUAUUAUAUAU [Title] (Eterna round: R96, puzzle: Exclusion NG 1) | 61 | 39.3 | 47.6 |  |  |  |
| UUAUUGUGAGGAUAUCAGGUGUGCUAGCGUACUGGUACAUCUGAGAAGGCACAUGAGGAUCACCCAUGUUCCUU [JL-ex4-3.26 Brourd mod] (puzzle: Exclusion 4) |  |  |  |  | 14.4 |  |
| UUCAGUCUAGAGGAUAUGCUGGAUUAAUAUCUGGCAGAAGGCUGGACAUGAGGAUCACCCAUGUAAAUACUACC [Omei Ex6 A5] (Eterna round: R97, puzzle: Exclusion 6) | 356 |  | 68.3 |  |  |  |
| UUCAUUGCAGGAUAUACAUGAGGAUCACCCAUGUGACCAGUGGCCUGUUGCGGCUCCAGUAGAAGGGCAUGUGU [Eternabot (L2) Solution 89] (Eterna round: R97, puzzle: Exclusion 3) | 63.8 |  | 61.2 |  |  |  |
| UUCCGGCAUGUAGGAUAUGGAUCCGAUUAGGAUUUAGAAGGACAUGAGGAUCACCCAUGUGCAUUUAAUUAGUCAUUACCGUUU [EXclNG1-LROPPY06] (Eterna round: R96, puzzle: Exclusion NG 1) |  | 34.4 |  |  |  |  |
| UUCCUCACUUCUUUGACUCACAUGAGGAUCACCCAUGUAAUAUAGGAUAUGCAUUUUAUUUCUUUGCAGAAGGAUAUUAGUUUU [JR_ExcNG3_Sub088] (Eterna round: R96, puzzle: Exclusion NG 3) |  | 34.7 |  |  |  |  |
| UUCGCGGAAGGAUAUACAUGAGGAUCACCCAUGUGCUUAUGCGCAACAGCUUCGCAGUGUAGAAGGUUCAGAGU [Eternabot (L1) Solution 3] (Eterna round: R97, puzzle: Exclusion 3) | 18.9 |  | 23.4 |  |  |  |
| UUCUUACAUGAGGAUCACCCAUGUCAGGAUAUCUCCACACUGCGCUUGCGCAGUGUAUAGAGAAGGGACAGGCU [JL ViennaUCT Aner mod 5] (puzzle: Exclusion 1) |  |  |  |  | 40.7 |  |
| UUCUUACAUGAGGAUCACCCAUGUCAGGAUAUCUCCUCACUGCGCUUGCGCAGUGGAUAGAGAAGGGACAGGCU [JL ViennaUCT Aner mod 3] (puzzle: Exclusion 1) |  |  |  |  | 43.1 |  |
